Results as given in patent publication US20260015399A1 (Boehringer Ingelheim, published 2026).
*1 amine or outer side, *2 acyl side, *3 side chain or, on linkers, in order; H or OH if unused. Side-chain parts run from the residue outwards. The star is where a group is joined. C18 diacid = O=C(O)CCCCCCCCCCCCCCCCC(=O)*; γGlu = O=C(O)[C@H](CCC(=O)[*:2])N[*:1]; Isovaleryl = CC(C)CC(=O)*; Ahx = NCCCCCC(=O)O

T1: human NPY2 receptor (human, UniProt P49146 1-381)
T1 sequence (looked up): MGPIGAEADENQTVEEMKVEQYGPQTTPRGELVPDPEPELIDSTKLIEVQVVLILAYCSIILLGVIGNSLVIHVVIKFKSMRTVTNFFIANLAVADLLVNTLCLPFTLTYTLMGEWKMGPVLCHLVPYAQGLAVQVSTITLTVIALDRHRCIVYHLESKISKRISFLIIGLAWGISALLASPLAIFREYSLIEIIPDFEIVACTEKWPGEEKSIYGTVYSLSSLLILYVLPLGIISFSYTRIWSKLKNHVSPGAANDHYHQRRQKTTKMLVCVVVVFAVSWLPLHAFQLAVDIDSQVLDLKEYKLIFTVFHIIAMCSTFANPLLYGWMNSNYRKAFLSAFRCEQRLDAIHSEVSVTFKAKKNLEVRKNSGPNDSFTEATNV

T2: human NPY5 receptor (human, UniProt Q15761 1-445)
T2 sequence (looked up): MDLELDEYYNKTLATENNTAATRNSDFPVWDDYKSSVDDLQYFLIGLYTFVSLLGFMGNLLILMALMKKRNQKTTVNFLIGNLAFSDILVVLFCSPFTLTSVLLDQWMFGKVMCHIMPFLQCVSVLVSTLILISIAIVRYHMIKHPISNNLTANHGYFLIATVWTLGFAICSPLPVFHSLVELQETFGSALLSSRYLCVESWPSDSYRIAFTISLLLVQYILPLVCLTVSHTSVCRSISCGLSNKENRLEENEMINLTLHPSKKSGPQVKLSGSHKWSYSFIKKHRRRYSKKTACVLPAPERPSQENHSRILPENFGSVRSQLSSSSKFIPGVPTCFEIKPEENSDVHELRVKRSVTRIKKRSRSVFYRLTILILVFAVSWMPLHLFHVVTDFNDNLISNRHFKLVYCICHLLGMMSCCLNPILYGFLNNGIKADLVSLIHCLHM


How the values were obtained:
human NPY2 receptor [1] = biological target: T1, human NPY2 receptor; assay: cell-based or functional assay
human NPY5 receptor = biological target: T2, human NPY5 receptor; assay: cell-based or functional assay
human NPY2 receptor [2] = biological target: T1, human NPY2 receptor; assay: RLB: displacement of 125I-PYY(1-36) from hNPY2R membranes

Binder	EC50, HTRF cAMP Gi assay (human NPY2 receptor [1])	EC50, HTRF cAMP Gi assay (human NPY5 receptor)	Ki (human NPY2 receptor [2])
Isovaleryl-APEK([Ahx-γGlu-C18 diacid])PEEDASPEELQRYYISLRHYYNWLTRQRY-NH2 (SMILES CC[C@H](C)[C@H](NC(=O)[C@H](Cc1ccc(O)cc1)NC(=O)[C@H](Cc1ccc(O)cc1)NC(=O)[C@H](CCCNC(=N)N)NC(=O)[C@H](CCC(N)=O)NC(=O)[C@H](CC(C)C)NC(=O)[C@H](CCC(=O)O)NC(=O)[C@H](CCC(=O)O)NC(=O)[C@@H]1CCCN1C(=O)[C@H](CO)NC(=O)[C@H](C)NC(=O)[C@H](CC(=O)O)NC(=O)[C@H](CCC(=O)O)NC(=O)[C@H](CCC(=O)O)NC(=O)[C@@H]1CCCN1C(=O)[C@H](CCCCNC(=O)CCCCCNC(=O)CC[C@H](NC(=O)CCCCCCCCCCCCCCCCC(=O)O)C(=O)O)NC(=O)[C@H](CCC(=O)O)NC(=O)[C@@H]1CCCN1C(=O)[C@H](C)NC(=O)CC(C)C)C(=O)N[C@@H](CO)C(=O)N[C@@H](CC(C)C)C(=O)N[C@@H](CCCNC(=N)N)C(=O)N[C@@H](Cc1c[nH]cn1)C(=O)N[C@@H](Cc1ccc(O)cc1)C(=O)N[C@@H](Cc1ccc(O)cc1)C(=O)N[C@@H](CC(N)=O)C(=O)N[C@@H](Cc1c[nH]c2ccccc12)C(=O)N[C@@H](CC(C)C)C(=O)N[C@H](C(=O)N[C@@H](CCCNC(=N)N)C(=O)N[C@@H](CCC(N)=O)C(=O)N[C@@H](CCCNC(=N)N)C(=O)N[C@@H](Cc1ccc(O)cc1)C(N)=O)[C@@H](C)O) [Compound 76]	0.172 nM	> 5 µM	2.68 nM
Isovaleryl-APEK([Ahx-γGlu-C18 diacid])PEEEATPEELQRYYVSLRHYYNWLTRQRY-NH2 (SMILES CC(C)CC(=O)N[C@@H](C)C(=O)N1CCC[C@H]1C(=O)N[C@@H](CCC(=O)O)C(=O)N[C@@H](CCCCNC(=O)CCCCCNC(=O)CC[C@H](NC(=O)CCCCCCCCCCCCCCCCC(=O)O)C(=O)O)C(=O)N1CCC[C@H]1C(=O)N[C@@H](CCC(=O)O)C(=O)N[C@@H](CCC(=O)O)C(=O)N[C@@H](CCC(=O)O)C(=O)N[C@@H](C)C(=O)N[C@H](C(=O)N1CCC[C@H]1C(=O)N[C@@H](CCC(=O)O)C(=O)N[C@@H](CCC(=O)O)C(=O)N[C@@H](CC(C)C)C(=O)N[C@@H](CCC(N)=O)C(=O)N[C@@H](CCCNC(=N)N)C(=O)N[C@@H](Cc1ccc(O)cc1)C(=O)N[C@@H](Cc1ccc(O)cc1)C(=O)N[C@H](C(=O)N[C@@H](CO)C(=O)N[C@@H](CC(C)C)C(=O)N[C@@H](CCCNC(=N)N)C(=O)N[C@@H](Cc1c[nH]cn1)C(=O)N[C@@H](Cc1ccc(O)cc1)C(=O)N[C@@H](Cc1ccc(O)cc1)C(=O)N[C@@H](CC(N)=O)C(=O)N[C@@H](Cc1c[nH]c2ccccc12)C(=O)N[C@@H](CC(C)C)C(=O)N[C@H](C(=O)N[C@@H](CCCNC(=N)N)C(=O)N[C@@H](CCC(N)=O)C(=O)N[C@@H](CCCNC(=N)N)C(=O)N[C@@H](Cc1ccc(O)cc1)C(N)=O)[C@@H](C)O)C(C)C)[C@@H](C)O) [Compound 146]	0.13 nM	> 5 µM	8.93 nM
Isovaleryl-APAK([Ahx-γGlu-C18 diacid])PEEDASPEELQRYYVSLRHYYNWLTRQRY-NH2 (SMILES CC(C)CC(=O)N[C@@H](C)C(=O)N1CCC[C@H]1C(=O)N[C@@H](C)C(=O)N[C@@H](CCCCNC(=O)CCCCCNC(=O)CC[C@H](NC(=O)CCCCCCCCCCCCCCCCC(=O)O)C(=O)O)C(=O)N1CCC[C@H]1C(=O)N[C@@H](CCC(=O)O)C(=O)N[C@@H](CCC(=O)O)C(=O)N[C@@H](CC(=O)O)C(=O)N[C@@H](C)C(=O)N[C@@H](CO)C(=O)N1CCC[C@H]1C(=O)N[C@@H](CCC(=O)O)C(=O)N[C@@H](CCC(=O)O)C(=O)N[C@@H](CC(C)C)C(=O)N[C@@H](CCC(N)=O)C(=O)N[C@@H](CCCNC(=N)N)C(=O)N[C@@H](Cc1ccc(O)cc1)C(=O)N[C@@H](Cc1ccc(O)cc1)C(=O)N[C@H](C(=O)N[C@@H](CO)C(=O)N[C@@H](CC(C)C)C(=O)N[C@@H](CCCNC(=N)N)C(=O)N[C@@H](Cc1c[nH]cn1)C(=O)N[C@@H](Cc1ccc(O)cc1)C(=O)N[C@@H](Cc1ccc(O)cc1)C(=O)N[C@@H](CC(N)=O)C(=O)N[C@@H](Cc1c[nH]c2ccccc12)C(=O)N[C@@H](CC(C)C)C(=O)N[C@H](C(=O)N[C@@H](CCCNC(=N)N)C(=O)N[C@@H](CCC(N)=O)C(=O)N[C@@H](CCCNC(=N)N)C(=O)N[C@@H](Cc1ccc(O)cc1)C(N)=O)[C@@H](C)O)C(C)C) [Compound 145]	0.118 nM	> 5 µM	5.29 nM
Isovaleryl-APEK([Ahx-γGlu-C18 diacid])PEEDASPEELQRYYVSLRHYYNWLTRQRY-NH2 (SMILES CC(C)CC(=O)N[C@@H](C)C(=O)N1CCC[C@H]1C(=O)N[C@@H](CCC(=O)O)C(=O)N[C@@H](CCCCNC(=O)CCCCCNC(=O)CC[C@H](NC(=O)CCCCCCCCCCCCCCCCC(=O)O)C(=O)O)C(=O)N1CCC[C@H]1C(=O)N[C@@H](CCC(=O)O)C(=O)N[C@@H](CCC(=O)O)C(=O)N[C@@H](CC(=O)O)C(=O)N[C@@H](C)C(=O)N[C@@H](CO)C(=O)N1CCC[C@H]1C(=O)N[C@@H](CCC(=O)O)C(=O)N[C@@H](CCC(=O)O)C(=O)N[C@@H](CC(C)C)C(=O)N[C@@H](CCC(N)=O)C(=O)N[C@@H](CCCNC(=N)N)C(=O)N[C@@H](Cc1ccc(O)cc1)C(=O)N[C@@H](Cc1ccc(O)cc1)C(=O)N[C@H](C(=O)N[C@@H](CO)C(=O)N[C@@H](CC(C)C)C(=O)N[C@@H](CCCNC(=N)N)C(=O)N[C@@H](Cc1c[nH]cn1)C(=O)N[C@@H](Cc1ccc(O)cc1)C(=O)N[C@@H](Cc1ccc(O)cc1)C(=O)N[C@@H](CC(N)=O)C(=O)N[C@@H](Cc1c[nH]c2ccccc12)C(=O)N[C@@H](CC(C)C)C(=O)N[C@H](C(=O)N[C@@H](CCCNC(=N)N)C(=O)N[C@@H](CCC(N)=O)C(=O)N[C@@H](CCCNC(=N)N)C(=O)N[C@@H](Cc1ccc(O)cc1)C(N)=O)[C@@H](C)O)C(C)C) [Compound 79]	0.076 nM	> 5 µM	1.54 nM
Isovaleryl-APEK([Ahx-γGlu-C18 diacid])PEEDAEPEELQRYYTSLRHYYHWLTRQRY-NH2 (SMILES CC(C)CC(=O)N[C@@H](C)C(=O)N1CCC[C@H]1C(=O)N[C@@H](CCC(=O)O)C(=O)N[C@@H](CCCCNC(=O)CCCCCNC(=O)CC[C@H](NC(=O)CCCCCCCCCCCCCCCCC(=O)O)C(=O)O)C(=O)N1CCC[C@H]1C(=O)N[C@@H](CCC(=O)O)C(=O)N[C@@H](CCC(=O)O)C(=O)N[C@@H](CC(=O)O)C(=O)N[C@@H](C)C(=O)N[C@@H](CCC(=O)O)C(=O)N1CCC[C@H]1C(=O)N[C@@H](CCC(=O)O)C(=O)N[C@@H](CCC(=O)O)C(=O)N[C@@H](CC(C)C)C(=O)N[C@@H](CCC(N)=O)C(=O)N[C@@H](CCCNC(=N)N)C(=O)N[C@@H](Cc1ccc(O)cc1)C(=O)N[C@@H](Cc1ccc(O)cc1)C(=O)N[C@H](C(=O)N[C@@H](CO)C(=O)N[C@@H](CC(C)C)C(=O)N[C@@H](CCCNC(=N)N)C(=O)N[C@@H](Cc1c[nH]cn1)C(=O)N[C@@H](Cc1ccc(O)cc1)C(=O)N[C@@H](Cc1ccc(O)cc1)C(=O)N[C@@H](Cc1c[nH]cn1)C(=O)N[C@@H](Cc1c[nH]c2ccccc12)C(=O)N[C@@H](CC(C)C)C(=O)N[C@H](C(=O)N[C@@H](CCCNC(=N)N)C(=O)N[C@@H](CCC(N)=O)C(=O)N[C@@H](CCCNC(=N)N)C(=O)N[C@@H](Cc1ccc(O)cc1)C(N)=O)[C@@H](C)O)[C@@H](C)O) [Compound 91]	0.219 nM	5 µM	4.64 nM
Isovaleryl-APEK([Ahx-γGlu-C18 diacid])PEEDASPEEIQRYYVSLRHYYNWLTRQRY-NH2 (SMILES CC[C@H](C)[C@H](NC(=O)[C@H](CCC(=O)O)NC(=O)[C@H](CCC(=O)O)NC(=O)[C@@H]1CCCN1C(=O)[C@H](CO)NC(=O)[C@H](C)NC(=O)[C@H](CC(=O)O)NC(=O)[C@H](CCC(=O)O)NC(=O)[C@H](CCC(=O)O)NC(=O)[C@@H]1CCCN1C(=O)[C@H](CCCCNC(=O)CCCCCNC(=O)CC[C@H](NC(=O)CCCCCCCCCCCCCCCCC(=O)O)C(=O)O)NC(=O)[C@H](CCC(=O)O)NC(=O)[C@@H]1CCCN1C(=O)[C@H](C)NC(=O)CC(C)C)C(=O)N[C@@H](CCC(N)=O)C(=O)N[C@@H](CCCNC(=N)N)C(=O)N[C@@H](Cc1ccc(O)cc1)C(=O)N[C@@H](Cc1ccc(O)cc1)C(=O)N[C@H](C(=O)N[C@@H](CO)C(=O)N[C@@H](CC(C)C)C(=O)N[C@@H](CCCNC(=N)N)C(=O)N[C@@H](Cc1c[nH]cn1)C(=O)N[C@@H](Cc1ccc(O)cc1)C(=O)N[C@@H](Cc1ccc(O)cc1)C(=O)N[C@@H](CC(N)=O)C(=O)N[C@@H](Cc1c[nH]c2ccccc12)C(=O)N[C@@H](CC(C)C)C(=O)N[C@H](C(=O)N[C@@H](CCCNC(=N)N)C(=O)N[C@@H](CCC(N)=O)C(=O)N[C@@H](CCCNC(=N)N)C(=O)N[C@@H](Cc1ccc(O)cc1)C(N)=O)[C@@H](C)O)C(C)C) [Compound 147]	0.146 nM	> 5 µM	5.04 nM
